Reference: patent US20250295737A1 (AstraZeneca / MedImmune, published 2025)
Like-named read-outs stand apart in the source and are kept apart here.

T1: human RXFP1 (human, UniProt Q9HBX9 1-757)
T1 sequence (looked up): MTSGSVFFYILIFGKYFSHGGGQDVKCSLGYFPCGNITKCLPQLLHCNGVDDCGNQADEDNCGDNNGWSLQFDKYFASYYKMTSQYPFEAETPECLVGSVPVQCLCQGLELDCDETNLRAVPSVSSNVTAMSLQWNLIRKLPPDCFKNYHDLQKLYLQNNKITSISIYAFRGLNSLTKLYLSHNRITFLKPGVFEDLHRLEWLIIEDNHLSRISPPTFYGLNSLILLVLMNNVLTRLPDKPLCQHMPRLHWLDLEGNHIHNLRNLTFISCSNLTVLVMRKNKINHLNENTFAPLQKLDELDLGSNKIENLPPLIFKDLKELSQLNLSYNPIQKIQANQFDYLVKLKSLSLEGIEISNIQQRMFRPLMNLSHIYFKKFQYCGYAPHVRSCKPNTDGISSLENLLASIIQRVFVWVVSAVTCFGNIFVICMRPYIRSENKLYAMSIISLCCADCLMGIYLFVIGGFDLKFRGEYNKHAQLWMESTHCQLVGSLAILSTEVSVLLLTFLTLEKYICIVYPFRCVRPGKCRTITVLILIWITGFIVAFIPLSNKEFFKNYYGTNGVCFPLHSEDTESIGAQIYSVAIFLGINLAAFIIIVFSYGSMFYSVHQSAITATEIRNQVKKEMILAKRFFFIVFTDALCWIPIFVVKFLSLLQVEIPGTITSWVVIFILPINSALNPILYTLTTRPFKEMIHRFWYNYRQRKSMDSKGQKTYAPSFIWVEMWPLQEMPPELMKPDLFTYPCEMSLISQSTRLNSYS

T2: mouse RXFP1 (mouse, UniProt Q6R6I7 1-758)
T2 sequence (looked up): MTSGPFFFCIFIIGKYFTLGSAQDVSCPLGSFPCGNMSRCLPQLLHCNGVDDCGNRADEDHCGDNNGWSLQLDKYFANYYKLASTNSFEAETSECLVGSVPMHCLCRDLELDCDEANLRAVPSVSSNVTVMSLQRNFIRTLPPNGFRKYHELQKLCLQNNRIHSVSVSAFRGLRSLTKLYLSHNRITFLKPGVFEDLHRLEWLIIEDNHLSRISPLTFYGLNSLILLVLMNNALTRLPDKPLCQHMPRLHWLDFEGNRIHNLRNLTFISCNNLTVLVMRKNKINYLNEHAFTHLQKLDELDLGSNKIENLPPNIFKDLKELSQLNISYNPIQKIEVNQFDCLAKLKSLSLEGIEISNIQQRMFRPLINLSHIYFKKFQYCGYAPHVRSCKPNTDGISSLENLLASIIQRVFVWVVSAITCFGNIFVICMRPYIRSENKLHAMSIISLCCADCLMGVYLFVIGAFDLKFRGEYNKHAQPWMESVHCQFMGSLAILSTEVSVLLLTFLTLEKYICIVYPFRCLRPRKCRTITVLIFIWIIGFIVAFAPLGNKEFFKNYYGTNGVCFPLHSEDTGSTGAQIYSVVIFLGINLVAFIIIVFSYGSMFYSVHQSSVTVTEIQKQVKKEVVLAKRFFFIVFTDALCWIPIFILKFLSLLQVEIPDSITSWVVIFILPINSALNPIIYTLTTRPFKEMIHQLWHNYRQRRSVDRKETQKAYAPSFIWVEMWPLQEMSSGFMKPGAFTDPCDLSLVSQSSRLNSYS

B1: RELAX0110 (Fc fusion)
chain 1: DKTHTCPPCPAPEFEGGPSVFLFPPKPKDTLMISRTPEVTCVVVDVSHEDPEVKFNWYVDGVEVHNAKTKPREEQYNSTYRVVSVLTVLHQDWLNGKEYKCKVSNKALPASIEKTISKAKGQPREPQVYTLPPCREEMTKNQVSLWCLVKGFYPSDIAVEWESNGQPENNYKTTPPVLDSDGSFFLYSKLTVDKSRWQQGNVFSCSVMHEALHNHYTQKSLSLSPGGGGGSGGGGGSQLYSALANKCCHVGCTKRSLARFC
chain 2: DKTHTCPPCPAPEFEGGPSVFLFPPKPKDTLMISRTPEVTCVVVDVSHEDPEVKFNWYVDGVEVHNAKTKPREEQYNSTYRVVSVLTVLHQDWLNGKEYKCKVSNKALPASIEKTISKAKGQPREPQVYTLPPCREEMTKNQVSLWCLVKGFYPSDIAVEWESNGQPENNYKTTPPVLDSDGSFFLYSKLTVDKSRWQQGNVFSCSVMHEALHNHYTQKSLSLSPGAAPAPAPAPAPAPAGSSWMEEVIKLCGRELVRAQIAICGMSTWS
B2: RELAX0111 (Fc fusion)
chain 1: DKTHTCPPCPAPEFEGGPSVFLFPPKPKDTLMISRTPEVTCVVVDVSHEDPEVKFNWYVDGVEVHNAKTKPREEQYNSTYRVVSVLTVLHQDWLNGKEYKCKVSNKALPASIEKTISKAKGQPREPQVYTLPPCREEMTKNQVSLWCLVKGFYPSDIAVEWESNGQPENNYKTTPPVLDSDGSFFLYSKLTVDKSRWQQGNVFSCSVMHEALHNHYTQKSLSLSPGGGGGGSQLYSALANKCCHVGCTKRSLARFC
chain 2: DKTHTCPPCPAPEFEGGPSVFLFPPKPKDTLMISRTPEVTCVVVDVSHEDPEVKFNWYVDGVEVHNAKTKPREEQYNSTYRVVSVLTVLHQDWLNGKEYKCKVSNKALPASIEKTISKAKGQPREPQVYTLPPCREEMTKNQVSLWCLVKGFYPSDIAVEWESNGQPENNYKTTPPVLDSDGSFFLYSKLTVDKSRWQQGNVFSCSVMHEALHNHYTQKSLSLSPGAAPAPAPAPAPAPAGSSWMEEVIKLCGRELVRAQIAICGMSTWS
B3: RELAX0039 (Fc fusion)
chain 1: DKTHTACPPCPAPEFEGGPSVFLFPPKPKDTLMISRTPEVTCVVVDVSHEDPEVKFNWYVDGVEVHNAKTKPREEQYNSTYRVVSVLTVLHQDWLNGKEYKCKVSNKALPASIEKTISKAKGQPREPQVYTLPPCREEMTKNQVSLWCLVKGFYPSDIAVEWESNGQPENNYKTTPPVLDSDGSFFLYSKLTVDKSRWQQGNVFSCSVMHEALHNHYTQKSLSLSPGGGGGSGGGGSGGGGSGGGGGSQLYSALANMCCHVGCTKRSLARFC
chain 2: DKTHTCPPCPAPEFEGGPSVFLFPPKPKDTLMISRTPEVTCVVVDVSHEDPEVKFNWYVDGVEVHNAKTKPREEQYNSTYRVVSVLTVLHQDWLNGKEYKCKVSNKALPASIEKTISKAKGQPREPQVCTLPPSREEMTKNQVSLSCAVKGFYPSDIAVEWESNGQPENNYKTTPPVLDSDGSFFLVSKLTVDKSRWQQGNVFSCSVMHEALHNHYTQKSLSLSPGGGGGSGGGGSGGGGSGGGGGSSWMEEVIKLCGRELVRAQIAICGMSTWS
B4: RELAX0041 (Fc fusion)
chain 1: DKTHTACPPCPAPEFEGGPSVFLFPPKPKDTLMISRTPEVTCVVVDVSHEDPEVKFNWYVDGVEVHNAKTKPREEQYNSTYRVVSVLTVLHQDWLNGKEYKCKVSNKALPASIEKTISKAKGQPREPQVYTLPPCREEMTKNQVSLWCLVKGFYPSDIAVEWESNGQPENNYKTTPPVLDSDGSFFLYSKLTVDKSRWQQGNVFSCSVMHEALHNHYTQKSLSLSPGGGGGSGGGGSGGGGSGGGGGSQLYSALANHCCHVGCTKRSLARFC
chain 2: DKTHTCPPCPAPEFEGGPSVFLFPPKPKDTLMISRTPEVTCVVVDVSHEDPEVKFNWYVDGVEVHNAKTKPREEQYNSTYRVVSVLTVLHQDWLNGKEYKCKVSNKALPASIEKTISKAKGQPREPQVCTLPPSREEMTKNQVSLSCAVKGFYPSDIAVEWESNGQPENNYKTTPPVLDSDGSFFLVSKLTVDKSRWQQGNVFSCSVMHEALHNHYTQKSLSLSPGGGGGSGGGGSGGGGSGGGGGSSWMEEVIKLCGRELVRAQIAICGMSTWS
B5: RELAX0052 (Fc fusion)
chain 1: DKTHTACPPCPAPEFEGGPSVFLFPPKPKDTLMISRTPEVTCVVVDVSHEDPEVKFNWYVDGVEVHNAKTKPREEQYNSTYRVVSVLTVLHQDWLNGKEYKCKVSNKALPASIEKTISKAKGQPREPQVYTLPPCREEMTKNQVSLWCLVKGFYPSDIAVEWESNGQPENNYKTTPPVLDSDGSFFLYSKLTVDKSRWQQGNVFSCSVMHEALHNHYTQKSLSLSPGGGGGSGGGGSGGGGSGGGGGSQLYSALANKCCHVGCTKESLARFC
chain 2: DKTHTCPPCPAPEFEGGPSVFLFPPKPKDTLMISRTPEVTCVVVDVSHEDPEVKFNWYVDGVEVHNAKTKPREEQYNSTYRVVSVLTVLHQDWLNGKEYKCKVSNKALPASIEKTISKAKGQPREPQVCTLPPSREEMTKNQVSLSCAVKGFYPSDIAVEWESNGQPENNYKTTPPVLDSDGSFFLVSKLTVDKSRWQQGNVFSCSVMHEALHNHYTQKSLSLSPGGGGGSGGGGSGGGGSGGGGGSSWMEEVIKLCGRELVRAQIAICGMSTWS
B6: RELAX0043 (Fc fusion)
chain 1: DKTHTACPPCPAPEFEGGPSVFLFPPKPKDTLMISRTPEVTCVVVDVSHEDPEVKFNWYVDGVEVHNAKTKPREEQYNSTYRVVSVLTVLHQDWLNGKEYKCKVSNKALPASIEKTISKAKGQPREPQVYTLPPCREEMTKNQVSLWCLVKGFYPSDIAVEWESNGQPENNYKTTPPVLDSDGSFFLYSKLTVDKSRWQQGNVFSCSVMHEALHNHYTQKSLSLSPGGGGGSGGGGSGGGGSGGGGGSQLYSALANECCHVGCTKRSLARFC
chain 2: DKTHTCPPCPAPEFEGGPSVFLFPPKPKDTLMISRTPEVTCVVVDVSHEDPEVKFNWYVDGVEVHNAKTKPREEQYNSTYRVVSVLTVLHQDWLNGKEYKCKVSNKALPASIEKTISKAKGQPREPQVCTLPPSREEMTKNQVSLSCAVKGFYPSDIAVEWESNGQPENNYKTTPPVLDSDGSFFLVSKLTVDKSRWQQGNVFSCSVMHEALHNHYTQKSLSLSPGGGGGSGGGGSGGGGSGGGGGSSWMEEVIKLCGRELVRAQIAICGMSTWS
B7: RELAX0040 (Fc fusion)
chain 1: DKTHTACPPCPAPEFEGGPSVFLFPPKPKDTLMISRTPEVTCVVVDVSHEDPEVKFNWYVDGVEVHNAKTKPREEQYNSTYRVVSVLTVLHQDWLNGKEYKCKVSNKALPASIEKTISKAKGQPREPQVYTLPPCREEMTKNQVSLWCLVKGFYPSDIAVEWESNGQPENNYKTTPPVLDSDGSFFLYSKLTVDKSRWQQGNVFSCSVMHEALHNHYTQKSLSLSPGGGGGSGGGGSGGGGSGGGGGSQLYSALANLCCHVGCTKRSLARFC
chain 2: DKTHTCPPCPAPEFEGGPSVFLFPPKPKDTLMISRTPEVTCVVVDVSHEDPEVKFNWYVDGVEVHNAKTKPREEQYNSTYRVVSVLTVLHQDWLNGKEYKCKVSNKALPASIEKTISKAKGQPREPQVCTLPPSREEMTKNQVSLSCAVKGFYPSDIAVEWESNGQPENNYKTTPPVLDSDGSFFLVSKLTVDKSRWQQGNVFSCSVMHEALHNHYTQKSLSLSPGGGGGSGGGGSGGGGSGGGGGSSWMEEVIKLCGRELVRAQIAICGMSTWS

Key:
Test in all cases: cell-based or functional assay
[1] = target: T1, human RXFP1
[2] = target: T2, mouse RXFP1
[3] = target: T3, human RXFP2 (human, UniProt Q8WXD0 1-754)
[4] = target: T1, human RXFP1; remark: listed apart in the source
[5] = target: T2, mouse RXFP1; remark: listed apart in the source
[6] = target: T3, human RXFP2; remark: listed apart in the source

T3 sequence (Q8WXD0 whole entry): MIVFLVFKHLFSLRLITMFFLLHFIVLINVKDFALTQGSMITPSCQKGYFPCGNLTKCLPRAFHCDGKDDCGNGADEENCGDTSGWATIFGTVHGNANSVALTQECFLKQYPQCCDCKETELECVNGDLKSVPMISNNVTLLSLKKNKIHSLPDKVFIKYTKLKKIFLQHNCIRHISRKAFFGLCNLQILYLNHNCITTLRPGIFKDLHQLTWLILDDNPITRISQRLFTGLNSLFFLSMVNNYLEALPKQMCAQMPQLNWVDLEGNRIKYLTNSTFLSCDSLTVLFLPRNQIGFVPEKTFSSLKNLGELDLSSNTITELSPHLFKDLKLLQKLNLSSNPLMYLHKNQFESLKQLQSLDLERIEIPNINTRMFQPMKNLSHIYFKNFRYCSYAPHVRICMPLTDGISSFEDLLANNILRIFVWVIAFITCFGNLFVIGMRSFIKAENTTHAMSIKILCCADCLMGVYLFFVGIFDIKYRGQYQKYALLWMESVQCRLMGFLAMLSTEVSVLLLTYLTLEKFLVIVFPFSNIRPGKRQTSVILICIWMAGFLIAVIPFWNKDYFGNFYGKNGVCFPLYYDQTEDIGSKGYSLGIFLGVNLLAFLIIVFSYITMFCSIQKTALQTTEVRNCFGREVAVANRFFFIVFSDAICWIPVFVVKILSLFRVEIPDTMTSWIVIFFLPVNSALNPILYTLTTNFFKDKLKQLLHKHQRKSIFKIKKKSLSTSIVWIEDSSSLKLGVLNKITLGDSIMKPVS

Binder	EC50 hRXFP1 (M), cAMP HTRF assay [1] [M]	EC50 mRXFP1 (M), cAMP HTRF assay [2] [M]	EC50 hRXFP2 (M), cAMP HTRF assay [3] [M]	EC50 hRXFP1 (M), cAMP HTRF assay [4] [M]	EC50 mRXFP1 (M), cAMP HTRF assay [5] [M]	EC50 hRXFP2 (M), cAMP HTRF assay [6] [M]
B1	1.88e-09	1.11e-09	> 6.07e-08			
B2	1.93e-09	1.24e-09	> 6.06e-08			
B3				6.54e-11	4.25e-11	1.08e-07
B4				6.22e-11	3.17e-11	1.18e-07
B5				9.67e-11	5.69e-11	1.05e-07
B6				7.98e-11	5.58e-11	> 1.58e-07
B7				5.92e-11	2.92e-11	> 1.27e-07
